For assay [1], the target named is T1, wtAR (Homo sapiens, UniProt P10275).
T1 sequence (P10275 1-920): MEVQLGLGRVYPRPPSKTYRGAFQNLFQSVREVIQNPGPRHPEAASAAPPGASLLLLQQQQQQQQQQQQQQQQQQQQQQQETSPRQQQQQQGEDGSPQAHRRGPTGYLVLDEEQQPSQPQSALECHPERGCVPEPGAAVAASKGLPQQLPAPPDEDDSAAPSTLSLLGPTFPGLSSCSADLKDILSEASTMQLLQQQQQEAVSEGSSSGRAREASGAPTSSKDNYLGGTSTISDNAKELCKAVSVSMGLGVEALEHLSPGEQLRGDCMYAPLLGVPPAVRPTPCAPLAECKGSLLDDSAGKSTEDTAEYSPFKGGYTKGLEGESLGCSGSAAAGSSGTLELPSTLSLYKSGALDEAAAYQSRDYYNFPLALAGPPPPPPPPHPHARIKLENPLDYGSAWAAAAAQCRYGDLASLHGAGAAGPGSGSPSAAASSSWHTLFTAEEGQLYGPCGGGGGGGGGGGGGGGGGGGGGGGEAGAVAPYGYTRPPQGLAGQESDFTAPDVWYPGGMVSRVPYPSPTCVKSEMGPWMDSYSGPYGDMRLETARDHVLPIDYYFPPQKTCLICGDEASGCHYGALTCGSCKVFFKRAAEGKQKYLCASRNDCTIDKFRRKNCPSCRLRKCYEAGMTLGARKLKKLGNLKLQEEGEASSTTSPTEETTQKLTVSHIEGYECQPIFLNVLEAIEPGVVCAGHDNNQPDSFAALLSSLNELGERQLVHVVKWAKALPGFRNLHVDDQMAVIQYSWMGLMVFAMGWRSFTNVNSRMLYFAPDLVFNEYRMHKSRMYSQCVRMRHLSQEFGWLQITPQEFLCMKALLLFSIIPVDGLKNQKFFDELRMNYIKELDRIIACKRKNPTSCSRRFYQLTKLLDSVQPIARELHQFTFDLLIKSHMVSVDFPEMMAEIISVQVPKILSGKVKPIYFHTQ
Nature of the assay: AR transactivation, transient transfection with MMTV-CAT reporter in DU145 cells. As to conditions: for AR transcriptional activity induction with cotransfected coactivator: wild type AR, 1 nM DHT, DU145, from 5-fold without coactivator.

For assay [2], the system named is AR. Nature of the assay: Mammalian two-hybrid assay with CAT reporter in DU145 cells. It counts as cell-based, human. The text has this: The mammalian two-hybrid system employed was essentially the protocol of Clontech (California), with the following modifications. […] The hinge and LBD of wtAR were then inserted into pGAL0. Similarly, the VP16 activation domain was fused to pCMX under the control of a CMV promoter, and designated pCMX-VP16 (provided by Dr. R. M. Evan).

Assay [3] has as its target T2, AR (Homo sapiens, UniProt P10275).
T2 sequence (P10275 1-920): T1 sequence (P10275 1-920)
The assay is described as follows: AR transcriptional activity (MMTV-CAT) in PC3 cells. As to conditions: TGFβ treatment.

Assay [4] concerns ARA55 mRNA. Nature of the assay: Northern blot of ARA55 mRNA in PC3 cells. The class given is cell-based, human. As to conditions: TGFβ 5 ng/ml. The method, then:
The total RNA (25 μg) was fractionated on a 1% formaldehyde-MOPS agarose gel, transferred onto a Hybond-N nylon membrane (Amersham) and prehybridized. A probe corresponding to the 900 bp C-terminus of ARA55 or an ARA54-specific sequence was ^32P-labeled in vitro using Random Primed DNA Labeling Kit (Boehringer-Mannheim) according to the manufacture's protocol and hybridized overnight. After washing, the blot was exposed and quantified by Molecular Dynamics PhosphorImager. β-actin was used to monitor the amount of total RNA in each lane.

Assay [5] concerns mARt877s. Nature of the assay: AR transactivation, transient transfection CAT reporter assay, mutant AR. The class given is cell-based, human. On the technique in general: A reporter such as luciferase makes a cellular process visible.
Assay [6] concerns the target T3, progesterone receptor (PR) (Homo sapiens, UniProt P06401).
T3 construct: expressed in transfected cells; host or cells: DU145
T3 sequence (P06401 1-933): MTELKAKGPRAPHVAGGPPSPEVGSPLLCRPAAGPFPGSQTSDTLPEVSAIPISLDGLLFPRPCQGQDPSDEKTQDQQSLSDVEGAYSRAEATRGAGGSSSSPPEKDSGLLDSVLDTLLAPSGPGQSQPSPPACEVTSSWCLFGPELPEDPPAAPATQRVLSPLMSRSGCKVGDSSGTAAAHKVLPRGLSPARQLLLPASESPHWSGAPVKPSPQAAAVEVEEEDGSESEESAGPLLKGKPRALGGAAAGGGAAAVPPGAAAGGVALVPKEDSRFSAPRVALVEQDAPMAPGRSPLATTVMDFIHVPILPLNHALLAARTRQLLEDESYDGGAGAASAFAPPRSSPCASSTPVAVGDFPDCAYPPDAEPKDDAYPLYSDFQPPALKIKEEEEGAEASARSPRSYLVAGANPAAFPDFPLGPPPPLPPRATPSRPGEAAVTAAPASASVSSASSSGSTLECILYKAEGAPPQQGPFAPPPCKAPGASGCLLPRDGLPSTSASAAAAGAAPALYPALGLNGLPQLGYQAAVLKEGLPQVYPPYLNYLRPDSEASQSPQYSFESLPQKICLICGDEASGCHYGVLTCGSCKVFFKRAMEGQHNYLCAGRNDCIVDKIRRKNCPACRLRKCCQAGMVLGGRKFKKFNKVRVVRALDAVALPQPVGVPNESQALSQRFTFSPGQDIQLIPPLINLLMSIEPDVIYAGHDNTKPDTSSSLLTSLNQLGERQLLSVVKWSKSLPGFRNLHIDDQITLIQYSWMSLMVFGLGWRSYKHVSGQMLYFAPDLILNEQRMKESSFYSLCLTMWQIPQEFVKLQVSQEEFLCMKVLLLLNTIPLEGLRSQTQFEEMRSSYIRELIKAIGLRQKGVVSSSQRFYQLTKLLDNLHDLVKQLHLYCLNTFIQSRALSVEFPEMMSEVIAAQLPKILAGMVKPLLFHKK
Nature of the assay: Steroid receptor transactivation, MMTV-CAT reporter in DU145 cells. It counts as cell-based. Particulars: DU145 cells, cognate ligand.

The target of assay [7] is T4, estrogen receptor (ER) (Homo sapiens, UniProt P03372).
T4 construct: expressed in transfected cells; host or cells: DU145
T4 sequence (P03372 1-595): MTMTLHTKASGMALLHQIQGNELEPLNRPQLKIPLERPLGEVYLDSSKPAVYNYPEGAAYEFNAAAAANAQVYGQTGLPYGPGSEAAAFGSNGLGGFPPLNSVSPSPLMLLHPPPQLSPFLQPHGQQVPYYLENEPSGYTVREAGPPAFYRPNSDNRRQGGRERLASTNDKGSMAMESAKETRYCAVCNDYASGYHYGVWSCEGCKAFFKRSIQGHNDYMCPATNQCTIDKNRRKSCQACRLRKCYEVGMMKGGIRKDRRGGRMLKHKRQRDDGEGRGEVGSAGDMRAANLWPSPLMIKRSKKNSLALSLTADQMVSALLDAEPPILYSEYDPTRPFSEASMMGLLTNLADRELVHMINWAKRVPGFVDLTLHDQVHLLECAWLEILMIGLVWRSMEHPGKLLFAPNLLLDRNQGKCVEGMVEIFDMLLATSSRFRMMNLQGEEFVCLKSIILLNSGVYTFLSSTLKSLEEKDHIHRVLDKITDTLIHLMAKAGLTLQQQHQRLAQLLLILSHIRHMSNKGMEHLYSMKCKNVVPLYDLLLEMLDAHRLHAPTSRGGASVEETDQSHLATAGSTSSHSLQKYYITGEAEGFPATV
The assay is described as follows: Steroid receptor transactivation, ERE-CAT reporter in DU145 cells. It counts as cell-based. As to conditions: DU145 cells.

Assay [8] addresses T5, glucocorticoid receptor (GR) (Homo sapiens, UniProt P04150).
T5 construct: expressed in transfected cells; host or cells: DU145
T5 sequence (P04150 1-777): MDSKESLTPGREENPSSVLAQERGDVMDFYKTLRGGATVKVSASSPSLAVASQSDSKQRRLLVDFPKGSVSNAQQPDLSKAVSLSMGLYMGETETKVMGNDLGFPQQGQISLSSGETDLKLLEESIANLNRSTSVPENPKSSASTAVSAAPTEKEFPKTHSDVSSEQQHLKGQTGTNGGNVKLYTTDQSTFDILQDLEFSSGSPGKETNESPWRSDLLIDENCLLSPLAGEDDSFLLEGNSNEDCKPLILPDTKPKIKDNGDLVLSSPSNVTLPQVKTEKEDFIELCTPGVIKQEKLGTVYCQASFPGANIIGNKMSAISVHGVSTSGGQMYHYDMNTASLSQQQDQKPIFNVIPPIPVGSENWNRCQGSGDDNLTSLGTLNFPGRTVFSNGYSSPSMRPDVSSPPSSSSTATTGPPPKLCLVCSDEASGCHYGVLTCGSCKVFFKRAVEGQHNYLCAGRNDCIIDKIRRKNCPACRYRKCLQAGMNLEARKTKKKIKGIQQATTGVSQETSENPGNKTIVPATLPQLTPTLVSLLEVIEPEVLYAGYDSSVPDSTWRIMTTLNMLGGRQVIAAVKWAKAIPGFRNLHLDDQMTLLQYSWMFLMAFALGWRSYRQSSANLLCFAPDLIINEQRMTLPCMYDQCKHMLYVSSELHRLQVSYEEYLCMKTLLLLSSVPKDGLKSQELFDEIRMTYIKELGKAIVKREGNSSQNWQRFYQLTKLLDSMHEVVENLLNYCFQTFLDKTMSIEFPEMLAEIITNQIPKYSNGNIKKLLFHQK
Nature of the assay: Steroid receptor transactivation, MMTV-CAT reporter in DU145 cells. The class given is cell-based. Particulars: DU145 cells.

The values below come from patent US7052908B2, “Androgen receptor coactivators” (University of Rochester, priority 1998, dated 2006).

Consider “Rb: retinoblastoma protein, SEQ ID NO:8, expressed by transfection as AR coactivator”, for which, in assay [1], the “AR transcriptional activity induction with cotransfected coactivator” value worked out at 21 fold. Further, the “induced CAT activity in mammalian two-hybrid assay (interaction with AR)” value in assay [2] (DU145, Rb with near full length AR (aa 36-918)) turned out to be 3 fold.
Regarding TGFβ, the “increase of AR transcriptional activity” value in assay [3] is listed as 70%. Besides, the “induction of ARA55 mRNA” value in assay [4] is 2 fold.
Take “ARA70: the first identified AR coactivator, used as positive control [reference compound]”: the “AR transcriptional activity induction with cotransfected coactivator” value in assay [1] is on record as 36 fold.
For `C[C@]12CC[C@@H]3c4ccc(O)cc4CC[C@H]3[C@@H]1CC[C@@H]2O` [E2, 17 β estradiol], the “response of Art877a transactivation to ligand” value in assay [5] (absence of ARA54, E2 10^-9-10^-7 M, HF 10^-7-10^-5 M) is listed as “responded”. Moreover, the “response of LNCaP mAR to ligand compared to wtAR” value in assay [5] (compared to wtAR) is “responded much better”.

B1: ARA54: 54 kDa androgen receptor coactivator, 474 aa, SEQ ID NO:2, expressed by transfection (protein)
chain: MSSEDREAQEDELLALASIYDGDEFRKAESVQGGETRIYLDLPQNFKIFVSGNSNECLQNSGFEYTICFLPPLVLNFELPPDYPSSSPPSFTLSGKWLSPTQLSALCKHLDNLWEEHRGSVVLFAWMQFLKEETLAYLNIVSPFELKIGSQKKVQRRTAQASPNTELDFGGAAGSDVDQEEIVDERAVQDVESLSNLIQEILDFDQAQQIKCFNSKLFLCSICFCEKLGSECMYFLECRHVYCKACLKDYFEIQIRDGQVQCLNCPEPKCPSVATPGQVKELVEAELFARYDRLLLQSSLDLMADVVYCPRPCCQLPVMQEPGCTMGICSSCNFAFCTLCRLTYHGVSPCKVTAEKLMDLRNEYLQADEANKRLLDQRYGKRVIQKALEEMESKEWLEKNSKSCPCCGTPIEKLDGCNKMTCTGCMQYFCWICMGSLSRANPYKHFNDPGSPCFNRLFYAVDVDDDIWEDEVED
modifications: Homo sapien
Take B1: in assay [6], the “induction of PR transcriptional activity by ARA54” value is on record as 3–5 fold. Besides, the “enhancement of wtAR transactivation by coexpressed ARA54” value in assay [1] (DHT 10^-10 to 10^-8 M) was 3–5 fold. Moreover, the “induction of AR transcriptional activity by ARA54” value in assay [1] (DU145 cells, cognate ligand) was “up to 6 fold”. In assay [7], the “effect of ARA54 on ER transcriptional activity” value is on record as “less than 2 fold”. In assay [8], the “effect of ARA54 on GR transcriptional activity” value is on record as “less than 2 fold”. Besides, in assay [2] (DU145, 10^-8 M DHT), the “CAT activity on coexpression of AR with ARA54” value was “significantly induced”.
